Positions count from the first letter of the chain named. Numbers in names are those of the source.
B1: TAT-GIV-CT-WT: Recombinant cell-permeable fusion of TAT-PTD, His and HA tags, linker and human GIV C-terminus (aa 1660-1870), wild type; SEQ ID NO: 2 (protein)
chain: MRGSHHHHHHGMASMTGGQQMGRDLYDDDDKDRWGSKLGYGRKKRRQRRRGGSTMSGYPYDVPDYAGSMGGSGHSGETLESRHHKIKTGSPGSEVVTLQQFLEESNKLTSVQIKSSSQENLLDEVMKSLSVSSDFLGKDKPVSCGLARSVSGKTPGDFYDRRTTKPEFLRPGPRKTEDTYFISSAGKPTPGTQGKIKLVKESSLSRQSKDSNPYATLPRASSVISTAEGTTRRTSIHDFLTKDSRLPISVDSPPAAADSNTTAASNVDKVQESRNSKSRSREQQSS
B2: TAT-GIV-CT-FA: GEF-deficient F1685A mutant of the TAT-GIV-CT peptide, dominant-negative; SEQ ID NO: 3 (protein)
chain: B1 chain with F101A

Key:
L6 myotubes = assay: Uptake of TAT peptides and actin staining in L6 myotubes (confocal); type: cell-based, rat; details: 0.2% FBS overnight
From the text: Dilutions of antibodies are as follows: anti-phospho-GIV-Tyr1764 (1:200) (Ventana/Roche and Spring Biosciences); anti-HA (1:300) (Covance); anti-GFP, mouse anti-InsRβ and mouse anti-phospho-IRS1 (1:200) from Santa Cruz Biotechnologies; DAPI 1:1,000 (Molecular Probes); Secondary goat anti-rabbit (594) and goat anti-mouse (488) Alexa conjugated antibodies (1:500) from Molecular Probes. Coverslips were mounted with ProLong Gold (Life Technologies). Cells were imaged on a Leica SPE confocal microscope using a 63× oil objective using 488, 561 and 405 laser lines for excitation. Images were scanned using a line-average of 3. All images were processed using ImageJ software and assembled into figure panels using Photoshop and Illustrator (Adobe).
Transfection was carried out with GeneJuice (Novagen) for DNA plasmids or Oligofectamine (Invitrogen) for siRNA oligos according to manufacturer's protocols. Silencer negative Control scrambled (Scr) siRNA used as control was purchased from Ambion and the previously validated (Enomoto et al., 2005) GIV siRNA sequence used was custom-ordered from Dharmacon. For TAT-construct transduction, cells were incubated with 300-800 nM of the TAT-proteins for 30 min at 37° C. prior to three washes with PBS and addition of fresh growth media. […]

[1] = tested on: L×2 human hepatic stellate cells; assay: L×2 myofibroblast (hepatic stellate cell) activation by TGFβ, qPCR and immunoblot; type: cell-based
Method: For measurement of collagen and αSMA mRNA levels in L×2 HSCs we followed the protocols exactly as before (59). Briefly, total RNA was isolated using an RNeasy kit (QIAGEN) as per the manufacturer's protocol. First-strand cDNA was synthesized using SuperScript II reverse transcriptase (Invitrogen), followed by ribonuclease H treatment (Invitrogen) before performing quantitative realtime PCR. Reactions omitting reverse transcriptase were performed in each experiment as negative controls. Reactions were then run on a real-time PCR system (ABI StepOnePlus; Applied Biosystems). Gene expression was detected with SYBR green (Invitrogen), and relative gene expression was determined by normalizing to GAPDH using the ΔΔT method. The sequences of primers used in this work are identical to what were used previously (59).
For TAT-protein transduction, cells were incubated with 400-800 nM of the TAT-proteins for 30 min at 37° C. prior to three washes with PBS and addition of fresh growth media. For analysis of EGF signaling, subconfluent monolayers of HeLa cells were treated with TAT proteins for 30 min, washed with PBS, and subsequently stimulated with EGF (50 nM) at 4 h after TAT transduction. For scratch-wound assays, HeLa monolayers were treated with TAT proteins before and at 12 h after wounding. For cancer cell invasion assays, highly invasive MDA MB 231 breast cancer cells were plated in 6-well dishes, treated with TAT-peptides for 30 min and subsequently lifted and placed in transwell chamber in the presence of serum-free media. For L×2 myofibroblast activation assays, cells were first treated with TAT-proteins for 30 min, starved in serum-free media, and subsequently treated with 1.5 ng/ml TGF-β for 24 h. TAT-protein transduction was repeated every 8 h during the course of TGFβ stimulation (total 3 treatments). […] In each case, whole cell lysates prepared from cells in duplicate wells were analyzed for signaling pathways and TAT-protein uptake by immunoblotting.

| Molecule | actin stress-fiber formation in L6 myotubes (L6 myotubes) | reduction of HSC activation (expression of α-SMA) ([1]; TGFβ 24 h, TAT every 8 h, qPCR) [%] | suppression of collagen production ([1]; TGFβ 24 h, TAT every 8 h, vs control and TAT-GIV-CT-WT, qPCR) [%] | TGFβ-SMAD cascade (phosphorylation of SMAD2/3) ([1]; immunoblot) |
| --- | --- | --- | --- | --- |
| B1 | enhancement | – | – | – |
| B2 | disrupted | ~30 | ~70 | suppression |

— patent US10653749B2, “Targeting GIV-GEF-GI signaling for treating diverse diseases” (The Regents of the University of California, priority 2015, dated 2020)
